# From US20240122847A1, “ORAL POLYPEPTIDE FORMULATIONS” (Bhami's Research Laboratory, Pvt. Ltd., priority 2022, published 2024)
# Like-named read-outs stand apart in the source and are kept apart here.
# Assays:
# [1] = in vivo
# [2] = minipig, in vivo
# Protocol: Pharmacokinetic analysis was conducted in Female Minipigs weighing 12±1 kg for 2 days. Pigs in the treatment group were fasted overnight prior to the test sample administration. All the test animals in the treatment groups were administered with respective test formulation to the pre-designated animals. The animal was restrained and its head was held vertically, the jaws were pulled away, the tongue was gently lifted with a forceps followed by placement of a polypeptide formulation as described herein buccally/sublingually. After placing a polypeptide formulation as described herein, the snout was held together for about 1-2 mins to prevent the chewing of the polypeptide formulation. The time of dosage of each animal was noted. Blood samples were collected at aforementioned time points 0 min, 15 min, 30 min, 1 hour, 2 hours, 4 hours, 8 hours, 12 hours, 24 hours, and 48 hours into an EDTA-blood collection tubes for the separation of plasma to determine insulin levels by ELISA. Plasma samples collected at different time points were analyzed by ELISA kit according to ABBEXA protocol. This kit is based on sandwich enzyme-linked immuno-sorbent assay technology. An antibody, anti-insulin was pre-coated onto a 96-well plate. Standards, test samples, and biotin-conjugated reagent were added to the wells and incubated. The HRP-conjugated reagent was then added, and the whole plate was incubated. Unbound conjugates were removed using wash buffer at each stage. TMB substrate was used to quantify the HRP enzymatic reaction. After TMB substrate was added, only wells that contain sufficient INS will produce a blue colored product, which then changes to yellow after adding the acidic stop solution. The intensity of the yellow color is proportional to the INS amount bound on the plate. The Optical Density (OD) was measured spectrophotometrically at 450 nm in a microplate reader, from which the concentration of INS can be calculated.
# Insulin was analyzed in plasma using a specific enzyme linked immunosorbent assay (ELISA). Pharmacokinetic endpoints were determined using noncompartmental methods using PK Solutions software. AUC was approximated using the trapezoidal rule on the observed concentrations. C max for each Insulin dose was derived as the maximum of all valid concentrations, and t max was then determined as the corresponding time point to C max. The terminal elimination rate constant (λz) was estimated by log-linear regression on the terminal part of the concentration-time curve, and t ½ was then calculated as t ½=ln 2/λz.
# [3] = rat, in vivo
# Protocol: Pharmacokinetic analysis was conducted in Female rats weighing 220-250 grams for 2 days. Rats in the oral treatment group was fasted overnight prior to the test sample administration. All the test animals in the treatment groups were administered with respective test formulation to the pre-designated animals. The animal was restrained and its head was held vertically, the jaws were pulled away, the tongue was gently lifted with a forceps followed by placement of a polypeptide formulation as described herein buccally/sublingually. After placing a polypeptide formulation as described herein, the snout was held together for about 1-2 mins to prevent the chewing of the polypeptide formulation. The time of dosage of each animal was noted. Blood samples were collected at aforementioned time points 0 min, 15 min, 30 min, 1 hour, 2 hours, 4 hours, 8 hours, 12 hours, 24 hours, and 48 hours into an EDTA-blood collection tubes for the separation of plasma to determine insulin levels by ELISA. Plasma samples collected at different time points were analyzed by ELISA kit according to ABBEXA protocol. This kit is based on sandwich enzyme-linked immuno-sorbent assay technology. An antibody, anti-insulin was pre-coated onto a 96-well plate. Standards, test samples, and biotin-conjugated reagent were added to the wells and incubated. The HRP-conjugated reagent was then added, and the whole plate was incubated. Unbound conjugates were removed using wash buffer at each stage. TMB substrate was used to quantify the HRP enzymatic reaction. After TMB substrate was added, only wells that contain sufficient INS will produce a blue colored product, which then changes to yellow after adding the acidic stop solution. The intensity of the yellow color is proportional to the INS amount bound on the plate. The Optical Density (OD) was measured spectrophotometrically at 450 nm in a microplate reader, from which the concentration of INS can be calculated.
# Insulin was analyzed in plasma using a specific enzyme linked immunosorbent assay (ELISA). Pharmacokinetic endpoints were determined using noncompartmental methods using PK Solutions software. AUC was approximated using the trapezoidal rule on the observed concentrations. C max for each Insulin dose was derived as the maximum of all valid concentrations, and t max was then determined as the corresponding time point to C max. The terminal elimination rate constant (λz) was estimated by log-linear regression on the terminal part of the concentration-time curve, and t ½ was then calculated as t½=ln 2/λz.
# [4] = Pharmacokinetics of hGH in minipigs, sugar truffle buccal/sublingual vs intravenous, plasma hGH ELISA; format: in vivo; settings: for Mean hGH levels: pigs, plasma
# Protocol: Pharmacokinetic analysis was conducted in Female Minipigs weighing 12±1 kg for 2 days. Pigs in the oral treatment group was either fasted overnight or fed prior to the test sample administration. All the test animals in the treatment groups were administered with respective test formulation to the pre-designated animals. The animal was restrained and its head was held vertically, the jaws were pulled away, the tongue was gently lifted with a forceps followed by placement of a polypeptide formulation as described herein buccally/sublingually. After placing a polypeptide formulation as described herein, the snout was held together for about 1-2 mins to prevent the chewing of the polypeptide formulation. The time of dosage of each animal was noted. […] Plasma samples collected at different time points were analyzed by ELISA kit according to Creative Diagnostics protocol. This kit is based on sandwich enzyme-linked immuno-sorbent assay technology. […] Standards, test samples, and biotin-conjugated reagent were added to the wells and incubated. The HRP-conjugated reagent was then added, and the whole plate was incubated. Unbound conjugates were removed using wash buffer at each stage. TMB substrate was used to quantify the HRP enzymatic reaction.
# Pharmacokinetic endpoints were determined using noncompartmental methods using PK Solutions software. AUC was approximated using the trapezoidal rule on the observed concentrations. […] The terminal elimination rate constant (λz) was estimated by log-linear regression on the terminal part of the concentration-time curve, and t ½ was then calculated as t ½=ln 2/X z.
# [5] = minipigs, buccal/sublingual hGH formulation
# [6] = minipigs, intravenous hGH formulation
substance,measurement,setting,value
Human Insulin R: peptide/protein hormone structurally identical to human insulin synthesized through rDNA technology; SC marketed liquid or lyophilized microparticles in sugar truffle shell,bioavailability when compared to SC or IV administration,[1],greater than 7%
same,AUC 0-inf/D_obs,[2]; 2.08 mg,7418.052 mU/L*h/(mg)
same,AUC 0-inf/D_pred,[2]; 2.08 mg,7439.299 mU/L*h/(mg)
same,AUC 0-inf_obs,[2]; 2.08 mg,2574.064 mU/L*h
same,AUC 0-inf_pred,[2]; 2.08 mg,2581.437 mU/L*h
same,AUC 0-t,[2]; 2.08 mg,2511.461 mU/L*h
same,AUC t-inf_obs,[2]; 2.08 mg,62.603 mU/L*h
same,AUC t-inf_pred,[2]; 2.08 mg,69.975 mU/L*h
same,Cl/F_obs,[2]; 2.08 mg,0.000 (mg)/(mU/L)/h
same,Cl/F_pred,[2]; 2.08 mg,0.000 (mg)/(mU/L)/h
same,Cmax,[2]; 2.08 mg,330.950 mU/L
same,MRT 0-inf_obs,[2]; 2.08 mg,11.492 h
same,MRT 0-inf_pred,[2]; 2.08 mg,11.639 h
same,MRT 0-t,[2]; 2.08 mg,10.214 h
same,Tmax,[2]; 2.08 mg,0.500 h
same,Vz/F_obs,[2]; 2.08 mg,0.002 (mg)/(mU/L)
same,Vz/F_pred,[2]; 2.08 mg,0.002 (mg)/(mU/L)
same,t½,[2]; 2.08 mg,10.234 h
same,AUC 0-inf/D_obs,"[2]; sc, 0.347 mg",3483.581 mU/L*h/(mg)
same,AUC 0-inf/D_pred,"[2]; sc, 0.347 mg",3434.617 mU/L*h/(mg)
same,AUC 0-inf_obs,"[2]; sc, 0.347 mg",1208.803 mU/L*h
same,AUC 0-inf_pred,"[2]; sc, 0.347 mg",1191.812 mU/L*h
same,AUC 0-t,"[2]; sc, 0.347 mg",1101.784 mU/L*h
same,AUC t-inf_obs,"[2]; sc, 0.347 mg",107.019 mU/L*h
same,AUC t-inf_pred,"[2]; sc, 0.347 mg",90.028 mU/L*h
same,Cl/F_obs,"[2]; sc, 0.347 mg",0.000 (mg)/(mU/L)/h
same,Cl/F_pred,"[2]; sc, 0.347 mg",0.000 (mg)/(mU/L)/h
same,Cmax,"[2]; sc, 0.347 mg",316.870 mU/L
same,MRT 0-inf_obs,"[2]; sc, 0.347 mg",13.028 h
same,MRT 0-inf_pred,"[2]; sc, 0.347 mg",12.134 h
same,MRT 0-t,"[2]; sc, 0.347 mg",6.938 h
same,Tmax,"[2]; sc, 0.347 mg",2.000 h
same,Vz/F_obs,"[2]; sc, 0.347 mg",0.008 (mg)/(mU/L)
same,Vz/F_pred,"[2]; sc, 0.347 mg",0.008 (mg)/(mU/L)
same,t½,"[2]; sc, 0.347 mg",19.218 h
same,AUC 0-inf/D_obs,[3]; 0.52 mg,4373.827 mU/L*h/(mg)
same,AUC 0-inf/D_pred,[3]; 0.52 mg,4364.913 mU/L*h/(mg)
same,AUC 0-inf_obs,[3]; 0.52 mg,2274.390 mU/L*h
same,AUC 0-inf_pred,[3]; 0.52 mg,2269.755 mU/L*h
same,AUC 0-t,[3]; 0.52 mg,2204.699 mU/L*h
same,AUC t-inf_obs,[3]; 0.52 mg,69.691 mU/L*h
same,AUC t-inf_pred,[3]; 0.52 mg,65.056 mU/L*h
same,Cl/F_obs,[3]; 0.52 mg,0.000 (mg)/(mU/L)/h
same,Cl/F_pred,[3]; 0.52 mg,0.000 (mg)/(mU/L)/h
same,Cmax,[3]; 0.52 mg,331.520 mU/L
same,MRT 0-inf_obs,[3]; 0.52 mg,11.202 h
same,MRT 0-inf_pred,[3]; 0.52 mg,11.097 h
same,MRT 0-t,[3]; 0.52 mg,9.580 h
same,Tmax,[3]; 0.52 mg,0.250 h
same,Vz/F_obs,[3]; 0.52 mg,0.003 (mg)/(mU/L)
same,Vz/F_pred,[3]; 0.52 mg,0.003 (mg)/(mU/L)
same,t½,[3]; 0.52 mg,10.064 h
same,AUC 0-inf/D_obs,"[3]; sc, 0.087 mg",6997.06 mU/L*h/(mg)
same,AUC 0-inf/D_pred,"[3]; sc, 0.087 mg",6935.40 mU/L*h/(mg)
same,AUC 0-inf_obs,"[3]; sc, 0.087 mg",2427.98 mU/L*h
same,AUC 0-inf_pred,"[3]; sc, 0.087 mg",2406.58 mU/L*h
same,AUC 0-t,"[3]; sc, 0.087 mg",2382.00 mU/L*h
same,AUC t-inf_obs,"[3]; sc, 0.087 mg",45.98 mU/L*h
same,AUC t-inf_pred,"[3]; sc, 0.087 mg",24.58 mU/L*h
same,Cl/F_obs,"[3]; sc, 0.087 mg",0.00 (mg)/(mU/L)/h
same,Cl/F_pred,"[3]; sc, 0.087 mg",0.00 (mg)/(mU/L)/h
same,Cmax,"[3]; sc, 0.087 mg",332.03 mU/L
same,MRT 0-inf_obs,"[3]; sc, 0.087 mg",8.70 h
same,MRT 0-inf_pred,"[3]; sc, 0.087 mg",8.26 h
same,MRT 0-t,"[3]; sc, 0.087 mg",7.74 h
same,Tmax,"[3]; sc, 0.087 mg",0.50 h
same,Vz/F_obs,"[3]; sc, 0.087 mg",0.00 (mg)/(mU/L)
same,Vz/F_pred,"[3]; sc, 0.087 mg",0.00 (mg)/(mU/L)
same,t½,"[3]; sc, 0.087 mg",7.21 h
"hGH: human growth hormone (human recombinant), Norditropin NordiFlex; lyophilized microparticles in sugar truffle shell",AUC 0-inf/D_obs,[4]; [5],49506.598 pg·h/mL/mg
same,AUC 0-inf/D_pred,[4]; [5],49536.628 pg·h/mL/mg
same,AUC 0-inf_obs,[4]; [5],123.766495 ng·h/mL
same,AUC 0-inf_pred,[4]; [5],123.84157 ng·h/mL
same,AUC 0-t,[4]; [5],118.956091 ng·h/mL
same,AUC t-inf_obs,[4]; [5],4.810404 ng·h/mL
same,AUC t-inf_pred,[4]; [5],4.885479 ng·h/mL
same,AUMC 0-inf_obs,[4]; [5],1203569.518 pg/ml*h^2
same,AUMC 0-inf_pred,[4]; [5],1208579.228 pg/ml*h^2
same,AUMC 0-t,[4]; [5],882575.168 pg/ml*h^2
same,AUMC t-inf_obs,[4]; [5],320994.350 pg/ml*h^2
same,AUMC t-inf_pred,[4]; [5],326004.060 pg/ml*h^2
same,Cl/F_obs,[4]; [5],0.000 (mg)/(pg/ml)/h
same,Cl/F_pred,[4]; [5],0.000 (mg)/(pg/ml)/h
same,Clast_obs,[4]; [5],0.25684 ng/mL
same,Clast_pred,[4]; [5],0.260848 ng/mL
same,Cmax,[4]; [5],27.12344 ng/mL
same,Lambda_z,[4]; [5],0.053 h⁻¹
same,MRT 0-inf_obs,[4]; [5],9.725 h
same,MRT 0-inf_pred,[4]; [5],9.759 h
same,MRT 0-t,[4]; [5],7.419 h
same,Tlag,[4]; [5],0.000 h
same,Tlast,[4]; [5],48.000 h
same,Tmax,[4]; [5],1.000 h
same,Vz/F_obs,[4]; [5],0.000 (mg)/(pg/ml)
same,Vz/F_pred,[4]; [5],0.000 (mg)/(pg/ml)
same,t½,[4]; [5],12.982 h
same,AUC 0-inf/D_obs,[4]; [6],485023.532 pg·h/mL/mg
same,AUC 0-inf/D_pred,[4]; [6],479198.128 pg·h/mL/mg
same,AUC 0-inf_obs,[4]; [6],160.057765 ng·h/mL
same,AUC 0-inf_pred,[4]; [6],158.135382 ng·h/mL
same,AUC 0-t,[4]; [6],154.059131 ng·h/mL
same,AUC t-inf_obs,[4]; [6],5.998634 ng·h/mL
same,AUC t-inf_pred,[4]; [6],4.076251 ng·h/mL
same,AUMC 0-inf_obs,[4]; [6],1696005.242 pg/ml*h^2
same,AUMC 0-inf_pred,[4]; [6],1578826.575 pg/ml*h^2
same,AUMC 0-t,[4]; [6],1330359.118 pg/ml*h^2
same,AUMC 0-t/0-inf_pred,[4]; [6],0.843
same,AUMC t-inf_obs,[4]; [6],365646.123 pg/ml*h^2
same,AUMC t-inf_pred,[4]; [6],248467.457 pg/ml*h^2
same,C0,[4]; [6],18.14454 ng/mL
same,Cl_obs,[4]; [6],0.000 (mg)/(pg/ml)/h
same,Clast_obs,[4]; [6],0.46304 ng/mL
same,Clast_pred,[4]; [6],0.31465 ng/mL
same,Cmax,[4]; [6],22.5132 ng/mL
same,Lambda_z,[4]; [6],0.077 h⁻¹
same,MRT 0-inf_obs,[4]; [6],10.596 h
same,MRT 0-inf_pred,[4]; [6],9.984 h
same,MRT 0-t,[4]; [6],8.635 h
same,Tlast,[4]; [6],48.000 h
same,Tmax,[4]; [6],0.500 h
same,Vss_obs,[4]; [6],0.000 (mg)/(pg/ml)
same,Vz_obs,[4]; [6],0.000 (mg)/(pg/ml)
same,t½,[4]; [6],8.980 h
same,Mean hGH levels,"[4]; GI- IV, time 0 hrs",18144.54 ± 1619.64 pg/mL
same,Mean hGH levels,"[4]; GI- IV, time 0.08 hrs",20014.87 ± 620.32 pg/mL
same,Mean hGH levels,"[4]; GI- IV, time 0.5 hrs",22513.2 ± 562.85 pg/mL
same,Mean hGH levels,"[4]; GI- IV, time 1 hrs",22130.7 ± 728.54 pg/mL
same,Mean hGH levels,"[4]; GI- IV, time 4 hrs",14910.13 ± 2908.87 pg/mL
same,Mean hGH levels,"[4]; GI- IV, time 8 hrs",1159.19 ± 226.15 pg/mL
same,Mean hGH levels,"[4]; GI- IV, time 24 hrs",1495.55 ± 291.77 pg/mL
same,Mean hGH levels,"[4]; GI- IV, time 48 hrs",463.04 ± 90.34 pg/mL
same,Mean hGH levels,"[4]; GII- Buccal/sublingual, time 0 hrs",20672.24 ± 1140.76 pg/mL
same,Mean hGH levels,"[4]; GII- Buccal/sublingual, time 0.08 hrs",18582.31 ± 1303.34 pg/mL
same,Mean hGH levels,"[4]; GII- Buccal/sublingual, time 0.5 hrs",26137.66 ± 4718.88 pg/mL
same,Mean hGH levels,"[4]; GII- Buccal/sublingual, time 1 hrs",27123.44 ± 382.69 pg/mL
same,Mean hGH levels,"[4]; GII- Buccal/sublingual, time 4 hrs",2681.8 ± 1281.33 pg/mL
same,Mean hGH levels,"[4]; GII- Buccal/sublingual, time 8 hrs",2208.63 ± 86.73 pg/mL
same,Mean hGH levels,"[4]; GII- Buccal/sublingual, time 24 hrs",971.98 ± 38.36 pg/mL
same,Mean hGH levels,"[4]; GII- Buccal/sublingual, time 48 hrs",256.84 ± 13.49 pg/mL
